# Test results from US20140011732A1.
# Non-standard residues stand in square brackets, D forms with d. No end group written: not given here. Aib = CC(C)(N)C(=O)O
# B1: N-epsilon23-[2-(2-[2-(2-[2-(2-((R)-3-[1-(17-Carboxyheptadecanoylamino)piperidin-4-ylcarbonylamino]-3-(carboxypropionylamino)ethoxy)ethoxy]acetylamino)ethoxy]eth … (peptide)
# peptide: H[Aib]EGTFTSDVSSYLEGKAAREFIAWLVRGRG
# modifications: not fully specified (residue 17); printed as N-epsilon23-[2-(2-[2-(2-[2-(2-(R)-3-[1-(17-Carboxyheptadecanoylamino)piperidin-4-ylcarbonylamino]-3-(carboxypropionylamino)ethoxy)ethoxy]acetylamino)ethoxy]ethoxy)acetyl][Aib8,Arg26,Arg 34]GLP-1-(7-37)
# B2: N-epsilon26-[(S)-4-Carboxy-4-({trans-4-[(19-carboxynonadecanoylamino)methyl]cyclohexanecarbonyl}amino)butyryl][Aib8,Arg34]GLP-1-(7-37) (peptide)
# peptide: HAEGTFTSDVSSYLEGQAAKEFIAWLVRGRG
# modifications: here or on the partner: Aib8; Lys26 N-epsilon carries the acyl side chain printed in the name; biotinylated
# Key:
# [1] = target: human serum albumin (HSA) (human) (UniProt P02768); experiment: competition SPA on biotinylated HSA, 125I acylated GLP-1 tracer
# [2] = target: human serum albumin (HSA) (human), P02768; experiment: as above; conditions: remark: other sources report otherwise
Binder,EC50 [1] [nM],EC50 [2] [nM]
B1,300 to 800,–
B2,–,300 to 800
